B1: anti-Her2 two helix binder (SEQ ID NO. 23) (designed binder)
chain: VENKCNKEMRNAYWEIALLPNLNNQQKRAFIRSLYDDPX
modifications: C^1 = hindered cysteine (penicillamine) at 39, disulfide linkage to natural Cys 5
B2: anti-Her2 two helix binder (SEQ ID NO. 19) (designed binder)
chain: B1 chain with C5X, X39C
modifications: C^1 = hindered cysteine (penicillamine) at 5, disulfide linkage to natural Cys 39
B3: anti-Her2 two helix binder (SEQ ID NO. 27), peptide with Ala29Aib (designed binder)
chain: B1 chain with A29X, X39C
modifications: X = alpha amino isobutyric acid (Aib) at 29
notes: Cys at 5 and 39
B4: anti-Her2 two helix binder (SEQ ID NO. 12), peptide with a covalent bridge between two E^1 residues (designed binder)
chain: B1 chain with E8X, E15X, X39C
modifications: E^1 = O-allyl glutamic acid at 8 and 15 joined by a covalent bridge (ring closing metathesis)
notes: Cys at 5 and 39
B5: anti-Her2 two helix binder (SEQ ID NO. 20) (designed binder)
chain: B1 chain with C5X, X39C
modifications: C^2 = extended cysteine (homocysteine) at 5, disulfide linkage to natural Cys 39
B6: anti-Her2 two helix binder (SEQ ID NO. 26) (designed binder)
chain: VENKCNK[Aib]MRN[Aib]YWE[Aib]ALLPNLNNQ[Aib]KRA[Aib]IRS[Aib]YDDPC-NH2
modifications: cysteine pairing not given here
notes: Cys at 5 and 39
B7: anti-Her2 two helix binder (SEQ ID NO. 24) (designed binder)
chain: VENKCNK[Aib]MRN[Aib]YWE[Aib]ALLPNLNNQQKRAFIRSLYDDPC-NH2
modifications: cysteine pairing not given here
notes: Cys at 5 and 39
B8: anti-Her2 two helix binder (SEQ ID NO. 25) (designed binder)
chain: VENKCNKEMRNAYWEIALLPNLNNQ[Aib]KRA[Aib]IRS[Aib]YDDPC-NH2
modifications: cysteine pairing not given here
notes: Cys at 5 and 39

Changes are numbered by the printed parent chain. Non-standard residues stand in square brackets, D forms with d. No end group written: not given here. Aib = CC(C)(N)C(=O)O

We go through eight molecules from US20100035361A1 (published 2010).

For the first assay, the target named is T1, extracellular domain of the Her2/neu antigen as a conjugate with the Fc region of human IgG (Fc-Her2), R&D … (human, UniProt P04626 23-652).
T1 construct: extracellular domain; Bought reagent; not shown: Fc region of human IgG
Kind of assay: SPR (Biacore) relative binding, about 5 ug/ml peptide.
For B1, the binding result is reported as “binds”.
The same measure, in the same setting: under B2 stands “binds”; under B3, “binds”.
Still for that read-out and setting: under B4 stands “binds”.
As to B5, the binding result is “binds”.

A further assay has as its target T1, extracellular domain of the Her2/neu …. As to the kind of experiment: binding analysis (method not given; SPR per Example 2).
As for B6, the binding result is “no binding”.
For the molecule B7, the binding result was “no binding”.
On the same count and under the same terms, the entry for B8 is “no binding”.
